Reference: the supplement of paper PMC10724198
± gives the standard deviation of the averaged measurements.

system: Saccharomyces cerevisiae; test: protein stability index of tFT-peptide fusion (C-terminal peptide) (PSI (0-1 scale)); higher = more stable (slower turnover); details: genetic background: wild type; temperature: 30 C
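Also: PSI is a weighted mean of sequencing reads over stability bins, variants kept only with over 10 reads, mCherry proximal and sfGFP distal, peptide attached via GGGS linker.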

First: GTVRSLLKWRCS
Second: GVCLGFICVGFC
The protein stability index of the first is lower: 0.3259 ± 0.00055 for the first, 0.444 ± 0.018 for the second.

Going from GVCWCVLFVVGC to GVYFIGISRCVC, the protein stability index falls from 0.359 ± 0.013 to 0.307 ± 0.0065.

First: GVYRLCLLLLVY
Second: GWRGVVLVFVLV
The protein stability index of the first is lower: 0.218 ± 0.034 for the first, 0.36784 ± 0.00027 for the second.

First: GWSRRFFCLFIV
Second: GWWCGIGVAVSV
The protein stability index of the first is lower: 0.137 ± 0.002 for the first, 0.464 ± 0.015 for the second.

Going from HHACLLPVRKAG to HLAQYSSSLHLM, the protein stability index rises from 0.277 ± 0.027 to 0.554 ± 0.085.

HPPPPPPPPSLS and IACVLSIFLNAA are within error of each other in protein stability index: 0.513 ± 0.062 for the first, 0.44 ± 0.054 for the second.

First: ICQFFFFALLSF
Second: IDSEVHLWKRSA
The protein stability index of the first is lower: 0.178 ± 0.013 for the first, 0.336 ± 0.058 for the second.

First: IFAVLVSGSFFF
Second: IFLGFGPLFGRL
The protein stability index of the first is lower: 0.4288 ± 0.00067 for the first, 0.777 ± 0.034 for the second.

Compared with IGSFFLFFLLIF, IIIGTLLYVNVR is lower in protein stability index: 0.384 ± 0.02 for the first, 0.29 ± 0.022 for the second.

Compared with IKRLKEVARHVS, ILGQSVIMRIKM is higher in protein stability index: 0.44 ± 0.054 for the first, 0.714 ± 0.075 for the second.

Going from ILLICLQFFNLF to ILRIYIPRWRRQ, the protein stability index falls from 0.4481 ± 0.0036 to 0.219 ± 0.087.

Going from INKKKKMIITKI to IPRSCRIRLAVL, the protein stability index falls from 0.427 ± 0.019 to 0.359 ± 0.014.

First: IQICLNRLRLFH
Second: IRACGCSFLWVC
The protein stability index of the first is higher: 0.4361 ± 0.0038 for the first, 0.192 ± 0.035 for the second.

First: IRLCAASFMVVF
Second: IRSRGLLIRWLS
The protein stability index of the first is higher: 0.474 ± 0.017 for the first, 0.182 ± 0.015 for the second.

Going from IVCAVTSIFLFF to IVRSLFGYLCVV, the protein stability index rises from 0.315 ± 0.021 to 0.467 ± 0.037.

KCVVMFFLRSVS and KFFRSWVLTSPA are within error of each other in protein stability index: 0.5 ± 0.026 for the first, 0.494 ± 0.057 for the second.

Compared with KFRGMTLRNKVC, KHTGTGNAPNCD is higher in protein stability index: 0.267 ± 0.013 for the first, 0.754 ± 0.056 for the second.

Compared with KIKKLKNRRKLV, KKKKQKKNNNKR is higher in protein stability index: 0.166 ± 0.088 for the first, 0.536 ± 0.074 for the second.

Going from KLKDLTRIKIFR to KRARVIWKLVVV, the protein stability index falls from 0.722 ± 0.019 to 0.445 ± 0.0046.

First: KRMVEKNKKKIN
Second: KSSIGVWTLLIR
The protein stability index of the first is lower: 0.31 ± 0.036 for the first, 0.494 ± 0.016 for the second.

Compared with KSTLVRILVFHV, KYKANLGNLKVH is lower in protein stability index: 0.384 ± 0.071 for the first, 0.135 ± 0.056 for the second.

LAPPFPVVLTPA and LCGGEWVVWVKG are within error of each other in protein stability index: 0.334 ± 0.015 for the first, 0.342 ± 0.0052 for the second.

Going from LCIFFWFSSFFL to LCLICLFLLKVL, the protein stability index falls from 0.493 ± 0.015 to 0.337 ± 0.022.

LCRCPVGVFVLL and LCVVFCIRTYRV are within error of each other in protein stability index: 0.362 ± 0.012 for the first, 0.335 ± 0.053 for the second.

First: LCYVLLWLLCRS
Second: LDLPFESGIACF
The protein stability index of the first is higher: 0.448 ± 0.027 for the first, 0.361 ± 0.0063 for the second.

LEGLLIRVYITF and LFFFLFSLLIFF are within error of each other in protein stability index: 0.288 ± 0.014 for the first, 0.301 ± 0.036 for the second.

Going from LFFFRLFVFWVF to LFFFSFSFLFFL, the protein stability index rises from 0.203 ± 0.0063 to 0.278 ± 0.035.

Compared with LFFFVFFVLFSV, LFFRLLCAFLFL is higher in protein stability index: 0.259 ± 0.075 for the first, 0.529 ± 0.046 for the second.

Compared with LFFVFCLFFIYF, LFHSIPRLLLLK is higher in protein stability index: 0.247 ± 0.004 for the first, 0.367 ± 0.053 for the second.

Compared with LFKFCLGIPLFL, LFLSAFFYLLVW is lower in protein stability index: 0.479 ± 0.038 for the first, 0.284 ± 0.039 for the second.

First: LFLVLFCVVGFV
Second: LFSFFVFFFLLD
The protein stability index of the first is lower: 0.282 ± 0.0047 for the first, 0.435 ± 0.034 for the second.

Compared with LFTRWSILFKLF, LGDPPCRMIVVR is higher in protein stability index: 0.132 ± 0.0026 for the first, 0.466 ± 0.033 for the second.

Going from LGGVEDRWRTAT to LGRLDYKRMKRA, the protein stability index rises from 0.365 ± 0.0037 to 0.533 ± 0.076.

LGSYIFVVVIYF and LGSYVWVFVYFW are within error of each other in protein stability index: 0.283 ± 0.15 for the first, 0.187 ± 0.051 for the second.

First: LHIHGAGIVCAG
Second: LICRFLFFVCVG
The protein stability index of the first is higher: 0.467 ± 0.028 for the first, 0.394 ± 0.04 for the second.

LILLTFTLRVPV and LLCLCSLPVFAS are within error of each other in protein stability index: 0.361 ± 0.034 for the first, 0.356 ± 0.016 for the second.

Compared with LLFLLSPFNFAV, LLFTFSLSFFFR is higher in protein stability index: 0.328 ± 0.07 for the first, 0.445 ± 0.014 for the second.

LLLHFMFSIFWF and LLMWVLFDCHYS are within error of each other in protein stability index: 0.378 ± 0.023 for the first, 0.396 ± 0.012 for the second.

Compared with LLPTSVFLPSLF, LLRIFLPLLYLL is lower in protein stability index: 0.489 ± 0.0069 for the first, 0.194 ± 0.019 for the second.
